For one assay, the system named is M. acetivorans TfuA. Particulars: FP; 25 °C, 1 h; ref Mahanta et al., 2018; cited from earlier work.
Assay [1] has as its target FITC-labeled M. acetivorans McrA 13-mer peptide (GG-…) (Methanosarcina acetivorans). Put plainly: fluorescence polarisation. In general terms: In fluorescence polarisation assays a small probe gives low polarisation when free and higher when bound to something large.
The test system of another assay is MjYcaO. Particulars: cited from earlier work.
Assay [2] addresses MBP-tagged Methanosarcina acetivorans YcaO (Methanosarcina acetivorans). Briefly: fluorescence polarisation.
In assay [3] the target is T1, MBP-tagged Methanocaldococcus jannaschii YcaO (Methanocaldococcus jannaschii, UniProt Q58494 1-385).
T1 sequence (looked up): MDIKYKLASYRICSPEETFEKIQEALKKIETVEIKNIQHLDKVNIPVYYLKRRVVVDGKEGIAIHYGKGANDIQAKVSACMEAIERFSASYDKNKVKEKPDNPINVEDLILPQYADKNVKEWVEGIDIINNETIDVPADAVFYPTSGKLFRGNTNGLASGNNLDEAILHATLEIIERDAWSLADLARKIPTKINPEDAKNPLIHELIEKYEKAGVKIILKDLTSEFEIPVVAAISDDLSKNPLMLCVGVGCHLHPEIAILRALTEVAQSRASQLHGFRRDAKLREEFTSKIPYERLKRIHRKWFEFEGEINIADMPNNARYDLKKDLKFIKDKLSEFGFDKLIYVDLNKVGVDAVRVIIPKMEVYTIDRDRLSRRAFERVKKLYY
Put plainly: fluorescence polarisation.

Primed or numbered codes have the meaning given here. Where no end group is shown, it is not given here. FITC′ = fluorescein

Broadly, the Kd is the constant that tells how readily two partners part at equilibrium. A higher Kd goes with lower affinity. As usually defined, the Ki is the dissociation constant of the complex between target and ligand, obtained from inhibition or displacement.

For GG-RLGFFGFDLQD [native McrA peptide], in the assay on M. acetivorans TfuA, the binding result is on record as “not detected”. For the molecule “MBP-tagged Methanosarcina acetivorans YcaO (enzyme)”, in assay [1], the Kd is 700 nM. Take `Nc1ncnc2c1ncn2[C@@H]1O[C@H](COP(=O)(O)OP(=O)(O)OP(=O)(O)O)[C@@H](O)[C@H]1O` [ATP]: the “ATP-derived by-products of thioamidation” value in the assay with MjYcaO (31P NMR, YcaO-catalyzed thioamidation, ref Mahanta et al., 2018) was “ADP and phosphate (Pi) were found to be the by-products”. The “ATP hydrolysis in the absence of the McrA peptide substrate” value with MjYcaO (absence of McrA peptide, ref Dong et al., 2019) is “YcaO can hydrolyze ATP to ADP and Pi unproductively”. Consider RLGFFAFDLQD [MBP-tagged McrA peptide, Ala substitution of Gly465], for which, in assay [2], the fold reduction of affinity against the wild-type peptide turned out to be 14 fold.

In assay [2], RLGFFGFDLAD [MBP-tagged McrA peptide, Ala substitution of Gln469] registered a fold reduction of affinity against the wild-type peptide of 24 fold. On to RAGFFGFDLQD [MBP-tagged McrA peptide, Ala substitution of Leu461], for which the fold reduction of affinity against the wild-type peptide in assay [2] worked out at 28 fold.

The molecule RLGFFGFDLQD [wild-type MBP-tagged McrA peptide (M. acetivorans McrA 11-mer)] yielded a Ki in assay [2] of 700 nM. {FITC′}-GGRLGFYGYDLQD [FITC-labeled M. jannaschii McrA 13-mer peptide (GG-RLGFYGYDLQD)]: in assay [3], the Kd was 1100 nM.

In assay [2], RLGFFGFDAQD [MBP-tagged McrA peptide, Ala substitution of Leu468] registered a fold reduction of affinity against the wild-type peptide of 14 fold.

Consider RLGFAGFDLQD [MBP-tagged McrA peptide, Ala substitution of Phe464], for which the fold reduction of affinity against the wild-type peptide in assay [2] turned out to be 11 fold. The same measure, in the same setting: as for RLAFFGFDLQD [MBP-tagged McrA peptide, Ala substitution of Gly462], the figure is 14 fold; as for RLGFFGFALQD [MBP-tagged McrA peptide, Ala substitution of Asp467], 12 fold.

Values taken from paper PMC8328229 (Methods in enzymology, 2021).
